Experimental data: IntAct's records for PubMed 31474574

B1: Splicing factor 3B subunit 1 (Homo sapiens), O75533 (parent)
chain: MAKIAKTHEDIEAQIREIQGKKAALDEAQGVGLDSTGYYDQEIYGGSDSRFAGYVTSIAATELEDDDDDYSSSTSLLGQKKPGYHAPVALLNDIPQSTEQYDPFAEHRPPKIADREDEYKKHRRTMIISPERLDPFADGGKTPDPKMNARTYMDVMREQHLTKEEREIRQQLAEKAKAGELKVVNGAAASQPPSKRKRRWDQTADQTPGATPKKLSSWDQAETPGHTPSLRWDETPGRAKGSETPGATPGSKIWDPTPSHTPAGAATPGRGDTPGHATPGHGGATSSARKNRWDETPKTERDTPGHGSGWAETPRTDRGGDSIGETPTPGASKRKSRWDETPASQMGGSTPVLTPGKTPIGTPAMNMATPTPGHIMSMTPEQLQAWRWEREIDERNRPLSDEELDAMFPEGYKVLPPPAGYVPIRTPARKLTATPTPLGGMTGFHMQTEDRTMKSVNDQPSGNLPFLKPDDIQYFDKLLVDVDESTLSPEEQKERKIMKLLLKIKNGTPPMRKAALRQITDKAREFGAGPLFNQILPLLMSPTLEDQERHLLVKVIDRILYKLDDLVRPYVHKILVVIEPLLIDEDYYARVEGREIISNLAKAAGLATMISTMRPDIDNMDEYVRNTTARAFAVVASALGIPSLLPFLKAVCKSKKSWQARHTGIKIVQQIAILMGCAILPHLRSLVEIIEHGLVDEQQKVRTISALAIAALAEAATPYGIESFDSVLKPLWKGIRQHRGKGLAAFLKAIGYLIPLMDAEYANYYTREVMLILIREFQSPDEEMKKIVLKVVKQCCGTDGVEANYIKTEILPPFFKHFWQHRMALDRRNYRQLVDTTVELANKVGAAEIISRIVDDLKDEAEQYRKMVMETIEKIMGNLGAADIDHKLEEQLIDGILYAFQEQTTEDSVMLNGFGTVVNALGKRVKPYLPQICGTVLWRLNNKSAKVRQQAADLISRTAVVMKTCQEEKLMGHLGVVLYEYLGEEYPEVLGSILGALKAIVNVIGMHKMTPPIKDLLPRLTPILKNRHEKVQENCIDLVGRIADRGAEYVSAREWMRICFELLELLKAHKKAIRRATVNTFGYIAKAIGPHDVLATLLNNLKVQERQNRVCTTVAIAIVAETCSPFTVLPALMNEYRVPELNVQNGVLKSLSFLFEYIGEMGKDYIYAVTPLLEDALMDRDLVHRQTASAVVQHMSLGVYGFGCEDSLNHLLNYVWPNVFETSPHVIQAVMGALEGLRVAIGPCRMLQYCLQGLFHPARKVRDVYWKIYNSIYIGSQDALIAHYPRIYNDDKNTYIRYELDYIL
partner: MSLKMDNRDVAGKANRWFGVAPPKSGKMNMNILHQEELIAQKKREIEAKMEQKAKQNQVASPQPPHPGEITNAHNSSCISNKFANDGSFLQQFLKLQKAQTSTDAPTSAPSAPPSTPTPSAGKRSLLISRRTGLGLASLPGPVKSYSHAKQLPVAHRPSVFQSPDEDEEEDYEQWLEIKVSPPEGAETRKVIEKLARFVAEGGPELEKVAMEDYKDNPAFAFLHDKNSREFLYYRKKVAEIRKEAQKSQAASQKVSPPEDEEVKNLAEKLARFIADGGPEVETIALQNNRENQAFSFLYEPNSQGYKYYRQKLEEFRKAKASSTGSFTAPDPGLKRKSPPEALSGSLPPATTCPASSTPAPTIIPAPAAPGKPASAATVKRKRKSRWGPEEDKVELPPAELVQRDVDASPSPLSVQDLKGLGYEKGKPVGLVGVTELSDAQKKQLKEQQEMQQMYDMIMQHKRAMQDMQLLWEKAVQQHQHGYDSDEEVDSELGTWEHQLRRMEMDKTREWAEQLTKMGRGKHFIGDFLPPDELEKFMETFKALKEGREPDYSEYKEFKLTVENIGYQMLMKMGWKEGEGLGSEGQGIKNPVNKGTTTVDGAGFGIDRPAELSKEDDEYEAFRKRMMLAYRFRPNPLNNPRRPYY
B2: SURP and G-patch domain-containing protein 1 (Homo sapiens), Q8IWZ8 (parent)
chain: B1 partner

Variants of: B1
Conditions: with sugp1_human SUGP1, Q8IWZ8

Variant	effect of a mutation on the interaction
K700E	decreasing interaction strength

Variants of: B1
Conditions: with sugp1_human SUGP1, Q8IWZ8
Remark: another data set of the same source

Variant	effect of a mutation on the interaction
K700E	disrupting interaction strength
E622D	disrupting interaction strength
H662Q	disrupting interaction strength
K666N	decreasing interaction strength
R625C	disrupting interaction strength

Variants of: B2
Conditions: with U2AF2, P26368
Chain of U2AF2, P26368 (P26368 whole entry): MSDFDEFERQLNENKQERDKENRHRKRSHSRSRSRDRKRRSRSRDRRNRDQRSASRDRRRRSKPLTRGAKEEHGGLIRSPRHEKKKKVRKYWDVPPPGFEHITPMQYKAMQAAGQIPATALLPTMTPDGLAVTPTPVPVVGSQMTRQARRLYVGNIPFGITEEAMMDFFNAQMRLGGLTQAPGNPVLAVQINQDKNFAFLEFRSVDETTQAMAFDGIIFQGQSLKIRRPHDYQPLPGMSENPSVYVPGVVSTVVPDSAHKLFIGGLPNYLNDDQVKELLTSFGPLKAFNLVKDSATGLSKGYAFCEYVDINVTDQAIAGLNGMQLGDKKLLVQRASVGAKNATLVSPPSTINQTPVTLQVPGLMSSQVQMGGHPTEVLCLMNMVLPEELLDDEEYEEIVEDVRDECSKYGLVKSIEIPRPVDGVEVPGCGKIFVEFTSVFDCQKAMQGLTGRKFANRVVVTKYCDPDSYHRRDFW

Variant	effect of a mutation on the interaction
W387A	disrupting interaction strength
